Measurements published in PMC12781872.

Key:
Assay in all cases: FRET
[1] = biological target: RNAP core beta' D359AzF Dylight488;sigmaA rpoC:D359 (Mycobacterium tuberculosis;Mycobacterium tuberculosis) (UniProt P9WGZ1+P9WGZ1+P9WGY9+P9WGY7+P9WGY5+P9WGI1)
[2] = biological target: RNAP core beta' D359AzF Dylight488;sigmaE rpoC:D359 (Mycobacterium tuberculosis;Mycobacterium tuberculosis) (UniProt P9WGZ1+P9WGZ1+P9WGY9+P9WGY7+P9WGY5+P9WGG7)
[3] = biological target: RNAP core beta' D359AzF Dylight488;sigmaF rpoC:D359 (Mycobacterium tuberculosis;Mycobacterium tuberculosis) (UniProt P9WGZ1+P9WGZ1+P9WGY9+P9WGY7+P9WGY5+P9WGI3)

GTGGCCCTTGTGGGAGCGTCGGCCATAGCGGCCTCCCGGTCGGCTTGCGCTG / CAGCGCAAGCCGACCGGGAGGCCGCTATGGCCGACGCTCCCACAAGGGCCAC / UUUUUUUCCGCUAUG
Kd [1]: 162 nM
Kd [2]: 335 nM
Kd [3]: 21.1 nM
